Broadly, the Kd is the constant that tells how readily two partners part at equilibrium. In general, koff refers to the rate constant with which the complex falls apart. A word on the kon: it is a measure of how fast the partners come together. High values mean fast association, low ones slow association. In general, EC50 refers to the concentration that produces a half-maximal response. A high value points to a less potent agent.

The source of these data is patent publication US20220185894A1 (F STAR THERAPEUTICS, published 2022).

Several values for one entry are separate records, joined by “and”; a condition that tells them apart may be missing. Identical values can stand only once.

For assay [1], the target named is T1, human PD-L1 Fc (R&D Systems, 156-B7) (human, UniProt Q9NZQ7 19-239).
T1 construct: Bought protein; not shown: Fc tag of the bought fusion protein
Nature of the assay: SPR, BIAcore T200; mAb2 captured on Protein L, PD-L1 Fc injected. On the technique in general: In SPR one partner is held on a chip, and binding of the other changes the refractive index at the surface.

Assay [2] addresses T2, human PD-L1 expressed on cells (human, UniProt Q9NZQ7 19-290). Description: cell-based or functional assay.
Assay [3] deals with T2, human PD-L1 expressed on cells. Nature of the assay: flow cytometry on HEK cells expressing human PD-L1. The method, then: (§1) HEK cells expressing human or cynomolgus PD-L1 grown in DMEM (Life Technologies, 61965-026) containing 10% FBS (Life Technologies, 10270-1-6), 100 μg/ml Hygromycin B (Melford Laboratories Ltd, Z2475), 15 μg/ml Blasticidin (Melford Laboratories Ltd, B1105) and 1 μg/ml Doxycyclin (Sigma, D9891) were detached from tissue culture flasks using cell dissociation buffer (Life Technologies, 13151-014) and seeded in V-bottom 96-well plates (Costar, 3897) at 2×10⁵ cells/well. The plates were centrifuged at 1500 rpm for 3 min at 4° C. to pellet the cells. A dilution series of the mAb² (or control mAb) was incubated with the cells in a 100 μl volume for 1 h at 4° C. The plates were washed and secondary antibody (Anti-human Fc-488, Jackson ImmunoResearch, 109-546-098) was diluted 1:1000 in PBS and 100 μl was added to the cells for 30 min at 4° C. (plates were kept in the dark). The plates were washed then cells were resuspended in 100 μl PBS containing 1 μg/ml DAPI (Biotium, 40043). The plates were read using Canto II flow cytometer (BD Bioscience). Dead cells were excluded and the fluorescence in the FITC channel (488 nm/530/30) was measured. The data was fit using log (agonist) vs response in GraphPad Prism Software. The plates were read on a BD FACSCanto II cytometer (BD Biosciences) and the data analysed using FlowJo.
Background: A flow cytometer gives signals particle by particle.

Assay [4] addresses T3, human LAG-3 expressed on cells (human, UniProt P18627 23-525).
T3 construct: also called hLAG-3; DO11.10 hLAG-3
T3 sequence: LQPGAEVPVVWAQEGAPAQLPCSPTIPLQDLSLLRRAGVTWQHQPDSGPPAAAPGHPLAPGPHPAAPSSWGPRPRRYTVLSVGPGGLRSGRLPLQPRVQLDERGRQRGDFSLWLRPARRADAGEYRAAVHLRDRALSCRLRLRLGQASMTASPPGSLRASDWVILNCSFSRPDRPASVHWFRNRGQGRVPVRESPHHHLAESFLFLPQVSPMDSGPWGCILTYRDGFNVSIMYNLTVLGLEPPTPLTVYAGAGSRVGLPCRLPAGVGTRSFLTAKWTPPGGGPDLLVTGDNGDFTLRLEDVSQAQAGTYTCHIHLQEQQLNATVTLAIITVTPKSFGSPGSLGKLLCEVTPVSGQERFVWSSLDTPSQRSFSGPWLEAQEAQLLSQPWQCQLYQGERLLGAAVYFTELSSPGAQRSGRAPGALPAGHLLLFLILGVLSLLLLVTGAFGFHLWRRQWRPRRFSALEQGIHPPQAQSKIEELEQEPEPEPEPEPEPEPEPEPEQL
Description: flow cytometry on HEK cells expressing human LAG-3. How it is done: as §1, with “The affinity of the mAb² (all containing the LALA mutation) for cell expressed human or cynomolgus LAG-3 was determined using flow cytometry. HEK cells” for “HEK cells”, “or cynomolgus LAG-3 grown in” for “or cynomolgus PD-L1 grown in”, “control mAb) were incubated with” for “control mAb) was incubated with”, “were washed and then cells” for “were washed then cells”

Assay [5] has as its target T4, cynomolgus PD-L1 expressed on cells (cynomolgus monkey, UniProt Q9NZQ7 19-290 (human entry)).
T4 construct: also called cPD-L1; cyno PD-L1
Nature of the assay: flow cytometry on HEK cells expressing cynomolgus PD-L1. The method, then: as §1

T1 sequence (Q9NZQ7 19-239 limits assumed): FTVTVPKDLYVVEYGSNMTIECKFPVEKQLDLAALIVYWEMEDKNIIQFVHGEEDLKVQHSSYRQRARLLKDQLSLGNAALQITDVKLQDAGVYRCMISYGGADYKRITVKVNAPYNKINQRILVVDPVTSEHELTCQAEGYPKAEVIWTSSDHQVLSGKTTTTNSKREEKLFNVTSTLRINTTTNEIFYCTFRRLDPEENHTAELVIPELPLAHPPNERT
T2 sequence (Q9NZQ7 19-290 limits assumed): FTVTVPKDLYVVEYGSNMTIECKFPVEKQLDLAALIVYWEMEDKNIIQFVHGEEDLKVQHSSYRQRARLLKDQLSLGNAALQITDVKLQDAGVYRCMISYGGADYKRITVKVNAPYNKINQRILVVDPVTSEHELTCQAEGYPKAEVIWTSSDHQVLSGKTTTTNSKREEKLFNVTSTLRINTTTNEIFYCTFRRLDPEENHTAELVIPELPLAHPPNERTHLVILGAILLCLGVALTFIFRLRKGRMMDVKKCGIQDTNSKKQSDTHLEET
T4 sequence (Q9NZQ7 other isoform, or with tags, fused parts or gaps limits assumed): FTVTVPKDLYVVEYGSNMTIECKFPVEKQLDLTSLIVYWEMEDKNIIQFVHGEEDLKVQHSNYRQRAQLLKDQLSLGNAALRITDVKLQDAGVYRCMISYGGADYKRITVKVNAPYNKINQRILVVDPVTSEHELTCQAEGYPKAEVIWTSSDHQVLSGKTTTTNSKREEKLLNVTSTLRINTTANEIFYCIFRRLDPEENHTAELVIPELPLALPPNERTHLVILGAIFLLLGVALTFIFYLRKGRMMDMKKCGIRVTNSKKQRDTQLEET

B1: anti-human LAG-3/PD-L1 mAb2 FS18-7-9/84G09 with LALA mutation (bispecific antibody, human IgG1, kappa, L234A L235A)
heavy: EVQLVESGGGLVQPGRSLRLSCAASGFTFDDYAMHWVRQTPGKGLEWVSGISWKSNIIGYADSVKGRFTISRDNAKNSLYLQMNSLRAEDTALYYCARDITGSGSYGWFDPWGQGTLVTVSSASTKGPSVFPLAPSSKSTSGGTAALGCLVKDYFPEPVTVSWNSGALTSGVHTFPAVLQSSGLYSLSSVVTVPSSSLGTQTYICNVNHKPSNTKVDKKVEPKSCDKTHTCPPCPAPEAAGGPSVFLFPPKPKDTLMISRTPEVTCVVVDVSHEDPEVKFNWYVDGVEVHNAKTKPREEQYNSTYRVVSVLTVLHQDWLNGKEYKCKVSNKALPAPIEKTISKAKGQPREPQVYTLPPSWDEPWGEDVSLTCLVKGFYPSDIAVEWESNGQPENNYKTTPPVLDSDGSFFLYSKLTVPYDRWVWPDEFSCSVMHEALHNHYTQKSLSLSPG
light: DIQMTQSPSSLSASVGDRVTITCRASQSISSYLNWYQQKPGKAPKPLIYVASSLQSGVPSSFSGSGSGTDFTLTISSLQPEDFATYYCQQSYSNPITFGQGTRLEIKRTVAAPSVFIFPPSDEQLKSGTASVVCLLNNFYPREAKVQWKVDNALQSGNSQESVTEQDSKDSTYSLSSTLTLSKADYEKHKVYACEVTHQGLSSPVTKSFNRGEC
notes: also called FS18-7-09/84G09LALA; FS18-7-9/84G09 LALA
In the case of B1, in assay [1], binding was put at a Kd of 1 nM. Besides, the koff in assay [1] is 0.00039 s⁻¹. In addition, in assay [1], the kon worked out at 380000 M⁻¹ s⁻¹. Also, the “Maximal IL2 release calculated as % ctrl (84G09 + 25F7)” value in assay [2] was 65.9%. The half-maximal effective concentration (EC50) in assay [3] was 3.19 nM and 3.51 nM; in assay [4], 3.18 nM; in assay [5] it was 1.67 nM and 1.81 nM.
